{
  "source": "patent US10563181B2",
  "about": "“Molecular cloning and expression of cDNA encoding O-methyltransferase isolated from Mangifera indica” (COUNCIL OF SCIENTIFIC & INDUSTRIAL RESEARCH, priority 2015, dated 2020)",
  "molecules": {"B1": {"name": "MiOMTS: O-methyltransferase enzyme protein from Mangifera indica, having SEQ ID No.3, recombinantly expressed in E. coli (protein)", "chain": "MGSLEVKTLLEGQAEVWQYMFGFADSMVLKSAVELRLADIIHSYGGPMSLSQIASKIDSASPNIPYLGRIMRMLARKGVFGAHRPSEGGDTTYGLTHISTWLRHDSELSLAPMILMENNLWQLAPWHYLSQCVKQGGIAFKKAHGCEMWDFASQNPEFNKLFNDALACTTKIVMRAFLSQYKEGFNNVRSLVDVGGGTGGELAEILKTYPHMKGINFDLPHVVATAPEYDGVSNVGGNMFDAIPNADVIFMKWILHDWSDEACVKILKNCRKAIPEKTGRVVLVEIVLQENGDNMFGNMDVVFDLLMFAHTTGGKERTEPEWKKLLEEGGFPRYNIINIPALPSIIEAYPL", "modifications": "O-methyltransferase enzyme protein sequence; O-methyltransferase peptide or enzyme sequence"}},
  "key": {"[1]": {"tested_on": "recombinant MiOMTS", "assay": "In vitro enzymatic assay of recombinant MiOMTS with candidate substrates and SAM as methyl group donor", "type": "biochemical, Mangifera indica", "conditions": "0.2 mM substrate, 0.01 mM SAM, 30° C. for 30 min; products identified by UHPLC-Orbitrap MS", "procedure": "The complete ORF of MiOMTS cDNA was cloned in pGEX-4T vector and the protein was expressed as GST-tag fusion protein in E. coli BL21 (DE3) cells. The protein was purified using GST affinity chromatography and released from the tag using thrombin. […] The purified protein was assayed for its activity with furaneol, caffeic acid, catechol and protocatechuic aldehyde as substrates and S-adenosyl-L-metheonine (SAM) as methyl group donor. The methylation products of these substrates upon MiOMTS enzymatic reaction were identified and analysed on high resolution mass spectrometer. […] In contrast to furaneol and protocatechuic aldehyde, MiOMTS could not use caffeic acid and catechol as the methyl group acceptor.\n(§1) The in vitro enzymatic assays were carried out in the lysis buffer containing appropriate amount of protein, 0.2 mM substrate and 0.01 mM S-adenosylmetheonine (SAM) in a final volume of 500 μl reaction. The reaction was incubated at 30° C. for 30 min. For the determination of optimum pH for the enzyme activity, the assays were performed in 50 mM citrate buffer (pH 4.0 and 5.0), 50 mM phosphate buffer (pH 6.0, 6.5, 7.0 and 7.5) and 50 mM Tris buffer (pH 8.0, 8.5 and 9.0) keeping other components in the assay same as above. Similarly, for optimum temperature the assays were performed at 15, 20, 25, 30, 35 and 40° C. Assay products were extracted twice with ethyl acetate; the organic layers were pooled, dried in a concentrator and constituted with methanol. An Accela™ ultra high performance liquid chromatography (UHPLC) system (ThermoFisher, Waltham, USA), coupled online via heated electrospray ionization source (HESI) with a Q-Exactive-Orbitrap mass spectrometer (ThermoFisher), was employed with 20 μL sample injection volume and the chromatograms were obtained by total ion monitoring in a positive ion mode. The products were separated and analysed on Hypercil GOLD C-18 reverse phase column (150 mm×3 mm i. d., particle size 5 μm, Thermo Scientific, Waltham, Mass., USA) with a linear gradient of 95% water acidified with 0.05% formic acid and 5% methanol to 80% methanol and 20% water with the flow rate of […]. The sample manager was maintained at 4° C. Identification of the substrates as well as products were done by comparing the retention time and molecular mass of authentic external standards [furaneol (CAS No. 3658-77-3), mesifuran (CAS No. 4077-47-8), protocatechuic aldehyde (CAS No. 139-85-5) and vanillin (CAS No. 121-33-5)] procured from Sigma Aldrich, USA."}, "[2]": {"tested_on": "MiOMTS transcripts", "conditions": "5DAH ethylene treated vs 20DAH conventionally ripened", "quoted_text": "Quantitative real-time PCR was performed using Fast Start Universal SYBR Green master mix (Roche Inc. Indianapolis, Ind., USA) and elongation factor 1α as an endogenous control employing the primers mentioned earlier (Pandit et al., 2010). Transcripts of MiOMTS were amplified using primers;\nQuantification was done by ViiA™ 7 Real-Time PCR System (Applied Biosystems, CA, USA) having thermal cycle programme of initial denaturation at 95° C. for 10 min with subsequent 40 cycles of 95° C. for 3 sec and 60° C. for 30 sec followed by a dissociation curve analysis of transcripts. […] The quantification was done for three independent biological replicates separately, each of which was represented by at least three technical replicates. […] The uniformity of expression across the tissues was monitored using elongation factor 1α (EF1α) gene as an endogenous control.\nTo get better understanding of synthesis of mesifuran during late ripening stages of Alphonso mango and its regulation at transcriptional level, the transcripts of MiOMTS were profiled during the conventional ripening of Alphonso mango. […] To further assess this at transcript level, the transcripts of MiOMTS were analyzed in the fruits which were subjected to the postharvest ethylene treatment."}, "[3]": {"tested_on": "recombinant MiOMTS", "assay": "Optimum pH and temperature for the activity of recombinant MiOMTS using furaneol as a substrate", "type": "biochemical, Mangifera indica", "procedure": "In order to evaluate the optimum biochemical conditions for the activity of recombinant MiOMTS, assays were performed at varied pH and temperatures using furaneol as a substrate. […] In case of temperature, optimum activity was detected at 25° C., with retention of 60% activity at 30° C.\nas §1"}},
  "note": "Read-outs that look alike come from different tables or passages of the source.",
  "data": [
    {"molecule": "CC1=C(O)C(=O)C(C)O1", "note": "(centres unmarked) [furaneol, 4-hydroxy-2,5-dimethyl-3(2H)-furanone]", "values": [
      {"measurement": "use of substrate as methyl group acceptor (methylation) by MiOMTS", "setting": "[1]", "value": "successfully used for methylation"}
    ]},
    {"molecule": "Oc1ccccc1O", "note": "[catechol]", "values": [
      {"measurement": "use of substrate as methyl group acceptor (methylation) by MiOMTS", "setting": "[1]", "value": "could not use"}
    ]},
    {"molecule": "C=C", "note": "[ethylene]", "values": [
      {"measurement": "MiOMTS transcript abundance, fold higher than conventionally ripened fruits", "setting": "[2]; pulp", "value": 19, "unit": "fold"},
      {"measurement": "MiOMTS transcript abundance, fold higher than conventionally ripened fruits", "setting": "[2]; skin", "value": 82, "unit": "fold"}
    ]},
    {"molecule": "O=C(O)/C=C/c1ccc(O)c(O)c1", "note": "[caffeic acid]", "values": [
      {"measurement": "use of substrate as methyl group acceptor (methylation) by MiOMTS", "setting": "[1]", "value": "could not use"}
    ]},
    {"molecule": "O=Cc1ccc(O)c(O)c1", "note": "[protocatechuic aldehyde]", "values": [
      {"measurement": "use of substrate as methyl group acceptor (methylation) by MiOMTS", "setting": "[1]", "value": "successfully used for methylation"}
    ]},
    {"molecule": "B1", "values": [
      {"measurement": "optimum pH for activity", "setting": "[3]", "value": 7.0},
      {"measurement": "optimum temperature for activity", "setting": "[3]", "value": 25, "unit": "°C"},
      {"measurement": "reduction in the activity", "setting": "[3]; 20° C.", "value": "more than 50%"},
      {"measurement": "retention of activity", "setting": "[3]; 30° C., relative to 25° C.", "value": 60, "unit": "%"},
      {"measurement": "activity", "setting": "[3]; 40° C.", "value": "complete inactivation"},
      {"measurement": "activity", "setting": "[3]; pH 4", "value": "no activity was detected"},
      {"measurement": "activity", "setting": "[3]; pH 5", "value": "no activity was detected"},
      {"measurement": "retention of activity", "setting": "[3]; pH 6.0, relative to pH 7.0", "value": 70, "unit": "%"},
      {"measurement": "retention of activity", "setting": "[3]; pH 8.0, relative to pH 7.0", "value": 90, "unit": "%"},
      {"measurement": "reduction in the activity", "setting": "[3]; pH 8.5", "value": "more than 50%"},
      {"measurement": "activity", "setting": "[3]; pH 9", "value": "no activity was detected"}
    ]}
  ]
}
